Experimental data from US12578329B2, “Reagent kit containing polypeptide for use in detection of intermolecular interactions” (SHIMADZU CORPORATION, priority 2021, dated 2026).
“Also recorded” adds a separate entry of the source.

How the values were obtained:
[1] = Emission value of secretion-expressed luciferase in COS-7 culture medium, coelenterazine substrate; type: biochemical; details: for emission values (rank order): Experiment 5
Description: (§1) • (1) COS-7 cells derived from the kidney of African green monkey were inoculated in a 24-well dish, and on the next day, subconfluency was attained. • (2) 25 μL of Opti-MEM (Thermo Fisher Scientific™), 400 ng (2 μL) of the plasmid, and 1 μL of P3000 (Invitrogen™, Waltham, MA) were mixed. • (3) 25 μL of Opti-MEM and 1 μL of lipofectoamine 3000 (Invitrogen™) were mixed. • (4) (2) and (3) were mixed together, followed by incubation at room temperature for 5 minutes. • (5) The mixture was added to the medium of (1). • (6) 500 μL of Dulbecco's modified Eagle's medium was added, followed by culturing the cells at 37° C. for 1 day and then collecting the medium. The medium contained secretion-expressed luciferase. • (7) To 100 μL of the medium, coelenterazine was added as a substrate at a final concentration of 5 μM, followed by measuring the emission value by using Enspire multi-mode plate reader (PerkinElmer™, Waltham, MA).
By the same manner as in Experiment 2, the emission value was measured.
(§2) The emission value was measured in the same manner as in Experiment 2 except that the final concentration of coelenterazine was changed to 0.5 μM. […] The emission value was measured in the same manner as in Experiment 2 except that the final concentration of coelenterazine was changed to 5 μM.

[2] = Emission activity of divided enzyme (Escherichia coli lysates, single or mixed); type: biochemical; details: Experiment 11-2, coelenterazine 5 μM, Enspire multi-mode plate reader
Excerpt: picALuc30 was divided to prepare plasmids (pET32 vectors) for expression of polypeptides from position 4 to 22, from position 23 to 120, from position 4 to 47, from position 48 to 120, from position 4 to 77, from position 80 to 120, from position 4 to 90, and from position 91 to 120 of the amino acid sequence in SEQ ID NO: 51. In the same manner as in Experiment 10, the plasmid was introduced into Escherichia coli SHuffle T7 Express lysY, and from the cultured bacterial cells, a lysate was obtained. To 100 μL of a single lysate or a mixture of lysates as specified in FIG. 25, coelenterazine was added as a substrate at a final concentration of 5 μM, followed by measuring the emission value by using an Infinite (registered trademark) 200 PRO plate reader (TECAN). Because the lysate contained luciferase fragments at high concentrations, it was expected that when fragment-containing lysates were mixed, two types of fragments were highly likely to encounter each other and these two fragments could form the original luciferase structure.
picALuc30 was divided to further prepare plasmids (pET32 vectors) for expression of polypeptides from position 4 to 58, from position 4 to 64, from position 4 to 72, from position 65 to 120, from position 73 to 120, and from position 104 to 120 of the amino acid sequence in SEQ ID NO: 51. In Experiment 11-2, emission values were measured in the same manner as in Experiment 11-1 except that an Enspire multi-mode plate reader (PerkinElmer™) was used for emission value detection.

[3] = Emission value of secretion-expressed luciferase in COS-7 culture medium, coelenterazine h substrate; type: biochemical; details: Experiment 5
Description: as §1
as §2, with “that coelenterazine h was used as a substrate in a” for “that the”, “of 5” for “of coelenterazine was changed to 0.5”, “of 25” for “of coelenterazine was changed to 5”

[4] = GLuc: when secretion expressed from cells; cited from earlier work
[5] = Emission value of secretion-expressed luciferase in COS-7 culture medium, furimazine substrate; type: biochemical; details: Experiment 5; furimazine in the concentration recommended by the manufacturer
Description: as §1
The emission value was measured in the same manner as in Experiment 2 except that furimazine, which was available from Promega™ as a NanoLuc® substrate, was used as a substrate in the concentration recommended by the manufacturer.

[6] = Stability of protein terminus: Western blot detection of Flag-tag and His-tag in culture supernatant; details: secretion-expressed luciferase in COS-7 culture supernatant; Western blotting
Excerpt: In the same manner as in Experiment 2, the plasmid was transfected into COS-7 cells and culture supernatant was collected. Flag-tag added to the N terminus of each secretion-expressed luciferase and His-tag added to the C terminus thereof were detected by Western blotting (SDS-PAGE, Mini-PROTEAN TGX Gel StainFree 4-15% (Bio-Rad™, Hercules, CA)) (FIG. 17). The antibodies used were Anti 6×Histidine, Monoclonal Antibody (9C11), Peroxidase Conjugated (manufactured by FUJIFILM Wako Pure Chemical Corporation, 1:1000) and Monoclonal ANTI-FLAG (R) M2-Peroxidase (HRP) antibody produced in mouse, clone M2 (manufactured by Sigma-Aldrich™, St. Louis, MO, 1/1000), respectively, and detection was performed with Amesham Imager 680 (Cytiva™, Marlborough, MA).

[7] = Measurement of specific activity (enzyme concentrations adjusted by Western blot signal); type: biochemical
Description: The specific activities of NanoLuc®, ALuc30 wt, and picALuc30 were measured, with their enzyme concentrations adjusted based on the Western blot signal intensity obtained in Experiment 6.

[8] = Experiment 2, coelenterazine 5 μM, medium of transfected COS-7 cells

B1: picALuc48: SEQ ID NO: 53; ALuc48 with deletion of N terminus and C terminus, corresponding to picALuc30 (protein)
chain: HGGLPGKKMPLEVLLELEANAQRAGCTRGCLICLSKIKCTAKMKKWLPGRCESWAGDKETGQGGITEEETVDIPEIPGFKDLEPMEQFIAQVDLCVDCTTGCLKGLANVKCSDLLKKWLPSRCAT
modifications: picALuc48
notes: ALuc48 with deletion of N terminus and C terminus, corresponding to picALuc30
In the case of B1, the emission value [1, 8] is reported as “sufficiently high”.

B2: position 4 to 72 and position 73 to 120: combination of polypeptides of these positions of SEQ ID NO: 51 (SEQ ID NOs: 80 and 84) (protein)
chain 1: GKKLPLEVLKELEANAQKAGCTRGCLICLSHIKCTAKMKKWLPGRCESWEGDKETGQGGIGEAIVDIPE
chain 2: IPGFKELAPMEQFIAQVDLCADCTTGCLKGLANVKCSALLKKWLPSRC
modifications: part of picALuc30
In the case of B2, the emission value [2] is reported as “high emission value”.

B3: position 4 to 72 and position 104 to 120: combination of polypeptides of these positions of SEQ ID NO: 51 (SEQ ID NOs: 80 and 85) (protein)
chain 1: B2 chain 1
chain 2: ANVKCSALLKKWLPSRC
modifications: part of picALuc30
With B3 the emission value [2] was “high emission value”.

B4: position 4 to 58 and position 23 to 120: combination of polypeptides of these positions of SEQ ID NO: 51 (SEQ ID NOs: 78 and 81) (protein)
chain 1: GKKLPLEVLKELEANAQKAGCTRGCLICLSHIKCTAKMKKWLPGRCESWEGDKET
chain 2: GCTRGCLICLSHIKCTAKMKKWLPGRCESWEGDKETGQGGIGEAIVDIPEIPGFKELAPMEQFIAQVDLCADCTTGCLKGLANVKCSALLKKWLPSRC
modifications: part of picALuc30
In the case of B4, the emission value [2] is reported as “high emission value”.

B5: position 4 to 72 and position 23 to 120: combination of polypeptides of these positions of SEQ ID NO: 51 (SEQ ID NOs: 80 and 81) (protein)
chain 1: B2 chain 1
chain 2: B4 chain 2
modifications: part of picALuc30
With B5 the emission value [2] was “high emission value”.

B6: picALuc16: SEQ ID NO: 52; ALuc16 with deletion of N terminus and C terminus, corresponding to picALuc30 (protein)
chain: KLPGKKLPLEVLKELEANAQKAGCTRGCLICLSHIKCTAKMKKWLPGRCESWEGDKETGQGGIGEAIVDIPEIPGFKDLEPMEQFIAQVDLCVDCTTGCLKGLANVKCSDLLKKWLPSRCAT
modifications: picALuc16
notes: ALuc16 with deletion of N terminus and C terminus, corresponding to picALuc30
With B6 the emission value [1, 8] was “sufficiently high”.

B7: NanoLuc®: known luciferase, about 19 kDa; SEQ ID NO: 73 (protein)
chain: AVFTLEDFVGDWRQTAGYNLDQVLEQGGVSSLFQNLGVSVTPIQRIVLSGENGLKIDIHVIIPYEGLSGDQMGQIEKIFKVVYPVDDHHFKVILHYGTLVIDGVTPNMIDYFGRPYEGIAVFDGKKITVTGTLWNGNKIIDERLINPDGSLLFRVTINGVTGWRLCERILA
modifications: oplophorus gracilirostris
In the case of B7, the “emission values (rank order)” value ([3]; coelenterazine h 5 μM) is reported as “TurboLuc™=ALuc30 wt>>NanoLuc®>picALuc30>GLuc”, the “emission values (rank order)” value ([3]; coelenterazine h 25 μM) is reported as “picALuc30>>NanoLuc®=TurboLuc™=ALuc30 wt>>GLuc” and the “emission values (rank order)” value ([1]; coelenterazine 0.5 μM) is reported as “NanoLuc®>>picALuc30>TurboLuc™>ALuc30 wt>GLuc”. For the same molecule, the “emission values (rank order)” value ([1]; coelenterazine 5 μM) was “ALuc30 wt=picALuc30>NanoLuc®>TurboLuc™>GLuc”, the “emission value (known)” value [4] was “very high” and the emission value [5] was “high emission values; also recorded: the same as when coelenterazine or coelenterazine h was used”.

B8: ALuc30Δloop2N1: SEQ ID NO: 54; ALuc30 wt with N terminus (1 to 49) and loop 2 (122 to 128) deleted, Gly-Ser inserted; 14 kDa (protein)
chain: RGRRGKLPGKKLPLEVLKELEANAQKAGCTRGCLICLSHIKCTAKMKKWLPGRCESWEGDKETGQGGIGEAIVGSFKELAPMEQFIAQVDLCADCTTGCLKGLANVKCSALLKKWLPSRCAGFADKIQAQVDTIKGAGGS
modifications: ALuc30_del_loop2N1
notes: ALuc30 wt with N terminus (1 to 49) and loop 2 (122 to 128) deleted, Gly-Ser inserted; 14 kDa
In the case of B8, the emission value ([1]; Experiment 4, same manner as Experiment 2 (coelenterazine 5 μM)) is reported as “about half the emission value of ALuc30ΔN1”.

B9: ALuc30 wt: artificial luciferase; positions 20 to 212 of ALuc30 (SEQ ID NO: 28) without a signal sequence; about 21 kDa (protein)
chain: HHHHHHHHDIVGVEGKFGTTDLETDLFTIVEDMNVISRDTDVDANRADRGRRGKLPGKKLPLEVLKELEANAQKAGCTRGCLICLSHIKCTAKMKKWLPGRCESWEGDKETGQGGIGEAIVDIPEIPGFKELAPMEQFIAQVDLCADCTTGCLKGLANVKCSALLKKWLPSRCAGFADKIQAQVDTIKGAGGS
modifications: ALuc30
notes: artificial luciferase; about 21 kDa
In the case of B9, the “stability of protein termini (Flag-tag and His-tag detection)” value [6] is reported as “both termini remaining”, the “emission values (rank order)” value ([3]; coelenterazine h 5 μM) is reported as “TurboLuc™=ALuc30 wt>>NanoLuc®>picALuc30>GLuc” and the “emission values (rank order)” value ([3]; coelenterazine h 25 μM) is reported as “picALuc30>>NanoLuc®=TurboLuc™=ALuc30 wt>>GLuc”. For the same molecule, the “emission values (rank order)” value ([1]; coelenterazine 0.5 μM) was “NanoLuc®>>picALuc30>TurboLuc™>ALuc30 wt>GLuc”, the “emission values (rank order)” value ([1]; coelenterazine 5 μM) was “ALuc30 wt=picALuc30>NanoLuc®>TurboLuc™>GLuc” and the maximum emission value ([7]; Experiment 7) was “same maximum emission value as NanoLuc®”. For the same molecule, the specific activity ([7]; coelenterazine or coelenterazine h as substrate) was “the same as the specific activity of picALuc” and the emission value [5] was “low as compared to NanoLuc® and TurboLuc™”.

B10: position 4 to 64 and position 65 to 120: combination of polypeptides of these positions of SEQ ID NO: 51 (SEQ ID NOs: 79 and 83) (protein)
chain 1: GKKLPLEVLKELEANAQKAGCTRGCLICLSHIKCTAKMKKWLPGRCESWEGDKETGQGGIG
chain 2: EAIVDIPEIPGFKELAPMEQFIAQVDLCADCTTGCLKGLANVKCSALLKKWLPSRC
modifications: part of picALuc30
In the case of B10, the emission value [2] is reported as “high emission value”.

B11: position 4 to 64 and position 73 to 120: combination of polypeptides of these positions of SEQ ID NO: 51 (SEQ ID NOs: 79 and 84) (protein)
chain 1: B10 chain 1
chain 2: B2 chain 2
modifications: part of picALuc30
With B11 the emission value [2] was “high emission value”.
